Source: US20240116985A1 (published 2024)
Starred links: 1 amine or outer side, 2 acyl side, 3 side chain; linkers in the order of their positions; H or OH if unused. Positions of bridges follow the written chain, without caps; N, C: chain ends. Non-standard residues stand in square brackets, D forms with d. Primed or numbered codes have the meaning given here. *: point of attachment. B5(16) = 2-amino-2-(pent-4-en-1-yl)hept-6-enoic acid = 2,2-bis(4-pentenyl)glycine (stitching residue), C=CCCCC(CCCC=C)(N[*:1])C(=O)[*:2]; PyrS2 = (S)-3-amino-1-((pent-4-en-1-yloxy)carbonyl)pyrrolidine-3-carboxylic acid, C=CCCCOC(=O)N1CC[C@@](N[*:1])(C(=O)[*:2])C1; B5(19) = 2-amino-2-(pent-4-en-1-yl)hept-6-enoic acid (bis(4-pentenyl)glycine), C=CCCCC(CCCC=C)(N[*:1])C(=O)[*:2]; Bta = N[C@@H](Cc1csc2ccccc12)C(=O)O; αAllylPro = C=CC[C@@]1(C(=O)O)CCCN1; iPr = CC(C)*

T1: full-length beta-Catenin (Uniprot ID P35222) (Homo sapiens (Human), UniProt P35222 2-781)
T1 construct: The FP assay uses 10 nM 'full-length beta-Catenin (Uniprot ID P35222)'; also called bCat; B-Catenin
T1 sequence: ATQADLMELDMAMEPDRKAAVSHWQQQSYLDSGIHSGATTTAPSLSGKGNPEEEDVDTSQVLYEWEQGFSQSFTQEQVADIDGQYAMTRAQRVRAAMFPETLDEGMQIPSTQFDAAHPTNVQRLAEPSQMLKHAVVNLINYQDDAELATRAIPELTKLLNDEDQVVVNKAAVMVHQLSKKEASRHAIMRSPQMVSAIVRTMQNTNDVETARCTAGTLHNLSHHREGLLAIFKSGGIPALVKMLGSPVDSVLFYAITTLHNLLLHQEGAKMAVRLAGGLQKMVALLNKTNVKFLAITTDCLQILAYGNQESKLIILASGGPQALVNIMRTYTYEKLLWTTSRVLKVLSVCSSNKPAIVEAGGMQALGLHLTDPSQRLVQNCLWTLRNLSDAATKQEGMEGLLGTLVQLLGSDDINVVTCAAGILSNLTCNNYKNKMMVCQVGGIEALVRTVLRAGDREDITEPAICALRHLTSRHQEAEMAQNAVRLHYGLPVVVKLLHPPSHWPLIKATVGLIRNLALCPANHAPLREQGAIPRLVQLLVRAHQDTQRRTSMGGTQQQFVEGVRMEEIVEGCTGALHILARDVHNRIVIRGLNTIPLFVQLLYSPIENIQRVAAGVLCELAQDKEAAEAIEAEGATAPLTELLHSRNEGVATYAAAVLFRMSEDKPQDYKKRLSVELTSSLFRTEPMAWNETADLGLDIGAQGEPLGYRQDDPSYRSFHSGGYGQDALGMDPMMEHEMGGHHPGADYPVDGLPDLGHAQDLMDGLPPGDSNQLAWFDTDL

T2: B-cat-Halo (beta-catenin HaloTag construct expressed in HEK293 cells) (UniProt P35222 1-781, HaloTag NanoBRET 618 Ligand bound in the assay)
T2 construct: Transfected NanoBRET construct; not shown: HaloTag
T2 sequence (looked up): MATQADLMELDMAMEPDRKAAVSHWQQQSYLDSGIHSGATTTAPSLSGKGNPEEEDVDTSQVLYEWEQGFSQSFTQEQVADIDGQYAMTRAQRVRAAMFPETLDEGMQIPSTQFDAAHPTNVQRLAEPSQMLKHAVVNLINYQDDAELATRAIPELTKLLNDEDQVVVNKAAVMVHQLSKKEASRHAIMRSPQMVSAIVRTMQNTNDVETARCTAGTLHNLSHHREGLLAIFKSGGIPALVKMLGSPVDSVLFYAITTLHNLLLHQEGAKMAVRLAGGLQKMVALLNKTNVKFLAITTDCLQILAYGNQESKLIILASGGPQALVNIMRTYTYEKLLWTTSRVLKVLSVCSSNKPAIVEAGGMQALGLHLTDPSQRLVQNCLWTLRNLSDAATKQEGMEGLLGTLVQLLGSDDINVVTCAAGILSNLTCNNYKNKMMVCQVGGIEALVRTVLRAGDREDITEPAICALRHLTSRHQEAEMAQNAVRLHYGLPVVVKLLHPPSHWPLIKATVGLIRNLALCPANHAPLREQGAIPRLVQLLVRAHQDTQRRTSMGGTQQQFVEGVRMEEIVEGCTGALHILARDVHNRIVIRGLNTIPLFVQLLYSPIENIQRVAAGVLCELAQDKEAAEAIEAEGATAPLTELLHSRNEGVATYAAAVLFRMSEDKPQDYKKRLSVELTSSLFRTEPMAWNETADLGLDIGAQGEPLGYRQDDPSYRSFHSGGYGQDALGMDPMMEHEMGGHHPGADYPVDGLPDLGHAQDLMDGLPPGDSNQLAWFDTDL

T3: full-length beta-Catenin (Uniprot ID P35222) (Homo sapiens (Human), UniProt P35222 2-781)
T3 construct: Given as 'full-length beta-Catenin (Uniprot ID P35222)' in the fluorescence polarization protocol; also called bCat; B-Catenin
T3 sequence: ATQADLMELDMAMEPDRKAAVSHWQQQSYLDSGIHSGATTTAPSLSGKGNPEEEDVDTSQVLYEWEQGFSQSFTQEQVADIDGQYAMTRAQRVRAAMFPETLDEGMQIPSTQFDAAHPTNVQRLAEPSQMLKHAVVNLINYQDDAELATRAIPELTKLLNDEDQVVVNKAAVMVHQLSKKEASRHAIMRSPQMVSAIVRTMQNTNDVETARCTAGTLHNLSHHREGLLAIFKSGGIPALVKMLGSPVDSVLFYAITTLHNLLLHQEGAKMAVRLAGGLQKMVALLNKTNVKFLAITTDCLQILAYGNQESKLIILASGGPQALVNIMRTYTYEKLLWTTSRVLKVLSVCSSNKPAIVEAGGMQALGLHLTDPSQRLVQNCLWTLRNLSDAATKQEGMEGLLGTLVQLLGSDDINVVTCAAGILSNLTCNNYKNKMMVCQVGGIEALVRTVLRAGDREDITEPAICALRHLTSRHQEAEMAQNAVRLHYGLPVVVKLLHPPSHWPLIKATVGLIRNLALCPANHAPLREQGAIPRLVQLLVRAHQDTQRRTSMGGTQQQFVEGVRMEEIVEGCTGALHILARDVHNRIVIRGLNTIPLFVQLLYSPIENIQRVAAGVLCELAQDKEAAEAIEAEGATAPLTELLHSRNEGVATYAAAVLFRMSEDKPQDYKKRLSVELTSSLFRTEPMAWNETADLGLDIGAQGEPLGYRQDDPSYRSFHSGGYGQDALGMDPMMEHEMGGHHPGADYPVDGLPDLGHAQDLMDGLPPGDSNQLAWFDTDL


Tests used:
[1] = target: T1, full-length beta-Catenin (Uniprot ID …); experiment: fluorescence polarization competition; 10 nM full-length beta-catenin, 10 nM 5FAM-TCF4(10-53) probe
Procedure: (§1) The plate was incubated protected from light for 60 minutes at 20° C. prior to read. Reads were performed on a CLARIOstar plate reader (BMG Labtech) in duplicate, and data were fitted to a 1:1 binding model with hill slope using an in-house script. All provided concentrations are final concentrations.

[2] = target: T2, B-cat-Halo (beta-catenin HaloTag …); experiment: NanoBRET Abs IC50 in HEK293 cells; B-cat-Halo with competitor TCF4-Luc
[3] = target: T3, full-length beta-Catenin (Uniprot ID …); experiment: fluorescence polarization competition; full-length beta-catenin, competitor 5FAM-TCF4 10-53 probe
Procedure: as §1

| IC50 [1] [nM] | IC50 [2] [nM] | IC50 [3] [nM] | Binder |
| --- | --- | --- | --- |
| 2350 | – | – | Ac-[αAllylPro]NY[B5(16)]DQK(iPr)AFL[PyrS2]F[Bta]Q-NH2 (staple 1-4, 4-11, Stapled peptide; also called Ac-PL3-Asn-Tyr-B5-Asp-Gln-iPrLys-Ala-Phe-Leu-PyrS2-Phe-BztA-Gln-NH2) [I-1647] |
| – | 27100 | 9 | Ac-[αAllylPro]DL[B5(19)]DDAAFL[PyrS2]F[Bta]Q-NH2 (staple 1-4, 4-11) [I-1402] |
